In this test the target is T1, CD38 on Ramos cells (human, UniProt P28907 1-300).
T1 construct: whole, on cells; also called CD38 expressing cells; Ramos target cells
In words: ADCC assay on Ramos cells (binding inferred from it). How it is done:
The ability of anti-CD38 antibodies to bind to CD38 expressing cells and promote functional activity was determined using an antibody-dependent cell-mediated cytotoxicity (ADCC) assay. In this assay, Ramos cells, a Burkitt's lymphoma cell line, were added to wells at 5×10³ cells per well. Test antibodies (C38A2 (“38-A2”), C38D8 (“38-D8”) and C38D4 (“38-D4”) and control IgG) were then added at 1 microgram per ml and incubated with the Ramos cells for 20 minutes at 37° C. After washing, the effector cells were added at different concentrations resulting in three effector-to-target ratios. The effector cells were purified natural killer (NK) cells that had been incubated overnight in the presence of IL-2 (100 U/ml). The assay was allowed to proceed for at least 4 hours after which time cytotoxicity was evaluated using a Promega Cyto-glo kit.

B1: C38D8 (antibody, V domains shown)
VH: QVQLVESGGGVVQPGGSLRLSCAASGFIVSTNYVHWVRQAPGKGLEWVSGIYSDPYTSYAYSDSVKGRFTISRDMSKNTVYLQMNRLRAEDTAVYYCARETNTGFSNSWYLDFWGQGTLVTVSS
VL: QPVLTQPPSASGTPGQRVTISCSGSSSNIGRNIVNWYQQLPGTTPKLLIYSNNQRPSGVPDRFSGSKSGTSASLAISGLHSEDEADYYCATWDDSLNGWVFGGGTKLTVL
notes: tested as an antibody beside an IgG matched control in the ADCC assay
Take B1: the binding result is “binds”.

B2: C38A2 (antibody, V domains shown)
VH: QVQLVESGGGLVKPGGSLRLSCAASGFTFSDDYMSWIRQAPGKGLEWVASVSNGRPTTYYADSVRGRFTISRDNAKNSLYLQMNSLRAEDTAVYYCAREDWGGEFTDWGRGTLVTVSS
VL: QAGLTQPPSASGTSGQRVTISCSGSSSNIGINFVYWYQHLPGTAPKLLIYKNNQRPSGVPDRFSGSKSGNSASLAISGLRSEDEADYYCAAWDDSLSGYVFGSGTKVTVL
notes: as for B1
As to B2, the binding result was “binds”.

(Values after US20170291959A1 (SORRENTO THERAPEUTICS, published 2017).)
